{"source": "patent US20240043507A1", "assay_in_all_cases": "cell-based or functional assay", "key": {"[1]": {"biological_target": "spike protein of SARS-CoV-2 strain Victoria (SARS-CoV-2/human/AUS/VIC01/2020) (SARS-CoV-2) (UniProt P0DTC2)"}, "[2]": {"biological_target": "spike protein of SARS-CoV-2 strain B.1.1.7 (SARS-CoV-2) (UniProt P0DTC2)"}, "[3]": {"biological_target": "spike protein of SARS-CoV-2 strain B.1.351 (SARS-CoV-2) (UniProt P0DTC2)"}, "[4]": {"biological_target": "SARS-CoV-2 spike protein on authentic virus, strain SARS-CoV-2/human/AUS/VIC01/2020 (Victoria) (SARS-CoV-2) (UniProt P0DTC2)"}, "[5]": {"biological_target": "SARS-CoV-2 spike protein on authentic virus, strain B.1.1.7 (SARS-CoV-2) (UniProt P0DTC2)"}, "[6]": {"biological_target": "spike protein of SARS-CoV-2 strain P.1 (SARS-CoV-2) (UniProt P0DTC2)"}}, "data": [{"substance": "REGN10987 (antibody)", "values": [{"measurement": "IC50 (FRNT neutralisation)", "setting": "[1]", "result": 0.032, "unit": "µg/mL"}, {"measurement": "IC50 (FRNT, live virus neutralisation)", "setting": "[1]", "result": 0.032, "unit": "µg/mL"}, {"measurement": "IC50 (FRNT neutralisation)", "setting": "[2]", "result": 0.028, "unit": "µg/mL"}, {"measurement": "IC50 (FRNT neutralisation)", "setting": "[3]", "result": 0.007, "unit": "µg/mL"}, {"measurement": "IC50 (ug/ml), FRNT", "setting": "[4]", "result": 0.032, "unit": "µg/mL"}, {"measurement": "IC50 (ug/ml), FRNT", "setting": "[5]", "result": 0.028, "unit": "µg/mL"}]}, {"substance": "ADG10 (antibody)", "values": [{"measurement": "FRNT50 ratio P.1/Victoria", "setting": "[6]", "result": 0.5}, {"measurement": "IC50 (FRNT neutralisation)", "setting": "[1]", "result": 0.006, "unit": "µg/mL"}, {"measurement": "FRNT50 ratio B.1.1.7/Victoria", "setting": "[2]", "result": 1.8}, {"measurement": "IC50 (FRNT neutralisation)", "setting": "[2]", "result": 0.01, "unit": "µg/mL"}, {"measurement": "FRNT50 ratio B.1.351/Victoria", "setting": "[3]", "result": 1.9}, {"measurement": "IC50 (FRNT neutralisation)", "setting": "[3]", "result": 0.011, "unit": "µg/mL"}]}, {"substance": "LY-CoV555 (antibody)", "values": [{"measurement": "FRNT50 ratio P.1/Victoria", "setting": "[6]", "result": "> 1550"}, {"measurement": "IC50 (FRNT neutralisation)", "setting": "[1]", "result": 0.006, "unit": "µg/mL"}, {"measurement": "FRNT50 ratio B.1.1.7/Victoria", "setting": "[2]", "result": 1.5}, {"measurement": "IC50 (FRNT neutralisation)", "setting": "[2]", "result": 0.009, "unit": "µg/mL"}, {"measurement": "FRNT50 ratio B.1.351/Victoria", "setting": "[3]", "result": "> 1550"}, {"measurement": "IC50 (FRNT neutralisation)", "setting": "[3]", "result": "> 10", "unit": "µg/mL"}]}, {"substance": "REGN10933 (antibody)", "values": [{"measurement": "IC50 (FRNT neutralisation)", "setting": "[1]", "result": 0.004, "unit": "µg/mL"}, {"measurement": "IC50 (FRNT, live virus neutralisation)", "setting": "[1]", "result": 0.004, "unit": "µg/mL"}, {"measurement": "IC50 (FRNT neutralisation)", "setting": "[2]", "result": 0.014, "unit": "µg/mL"}, {"measurement": "IC50 (FRNT neutralisation)", "setting": "[3]", "result": 3.28, "unit": "µg/mL"}, {"measurement": "IC50 (ug/ml), FRNT", "setting": "[4]", "result": 0.004, "unit": "µg/mL"}, {"measurement": "IC50 (ug/ml), FRNT", "setting": "[5]", "result": 0.014, "unit": "µg/mL"}]}, {"substance": "ADG30 (antibody)", "values": [{"measurement": "FRNT50 ratio P.1/Victoria", "setting": "[6]", "result": 0.3}, {"measurement": "IC50 (FRNT neutralisation)", "setting": "[1]", "result": 0.007, "unit": "µg/mL"}, {"measurement": "FRNT50 ratio B.1.1.7/Victoria", "setting": "[2]", "result": 2.5}, {"measurement": "IC50 (FRNT neutralisation)", "setting": "[2]", "result": 0.016, "unit": "µg/mL"}, {"measurement": "FRNT50 ratio B.1.351/Victoria", "setting": "[3]", "result": 4.4}, {"measurement": "IC50 (FRNT neutralisation)", "setting": "[3]", "result": 0.029, "unit": "µg/mL"}]}, {"substance": "AZD8895 (antibody)", "values": [{"measurement": "IC50 (FRNT neutralisation)", "setting": "[1]", "result": 0.005, "unit": "µg/mL"}, {"measurement": "IC50 (FRNT, live virus neutralisation)", "setting": "[1]", "result": 0.005, "unit": "µg/mL"}, {"measurement": "IC50 (FRNT neutralisation)", "setting": "[2]", "result": 0.011, "unit": "µg/mL"}, {"measurement": "IC50 (FRNT neutralisation)", "setting": "[3]", "result": 0.046, "unit": "µg/mL"}, {"measurement": "IC50 (ug/ml), FRNT", "setting": "[4]", "result": 0.005, "unit": "µg/mL"}, {"measurement": "IC50 (ug/ml), FRNT", "setting": "[5]", "result": 0.011, "unit": "µg/mL"}]}, {"substance": "ADG20 (antibody)", "values": [{"measurement": "FRNT50 ratio P.1/Victoria", "setting": "[6]", "result": 2.2}, {"measurement": "IC50 (FRNT neutralisation)", "setting": "[1]", "result": 0.004, "unit": "µg/mL"}, {"measurement": "FRNT50 ratio B.1.1.7/Victoria", "setting": "[2]", "result": 1.4}, {"measurement": "IC50 (FRNT neutralisation)", "setting": "[2]", "result": 0.006, "unit": "µg/mL"}, {"measurement": "FRNT50 ratio B.1.351/Victoria", "setting": "[3]", "result": 2.5}, {"measurement": "IC50 (FRNT neutralisation)", "setting": "[3]", "result": 0.01, "unit": "µg/mL"}]}, {"substance": "S309 (antibody)", "values": [{"measurement": "FRNT50 ratio P.1/Victoria", "setting": "[6]", "result": 1.9}, {"measurement": "IC50 (FRNT neutralisation)", "setting": "[1]", "result": 0.04, "unit": "µg/mL"}, {"measurement": "FRNT50 ratio B.1.1.7/Victoria", "setting": "[2]", "result": 1.5}, {"measurement": "IC50 (FRNT neutralisation)", "setting": "[2]", "result": 0.078, "unit": "µg/mL"}, {"measurement": "FRNT50 ratio B.1.351/Victoria", "setting": "[3]", "result": 2}, {"measurement": "IC50 (FRNT neutralisation)", "setting": "[3]", "result": 0.082, "unit": "µg/mL"}]}, {"substance": "AZD1061 (antibody)", "values": [{"measurement": "IC50 (FRNT neutralisation)", "setting": "[1]", "result": 0.013, "unit": "µg/mL"}, {"measurement": "IC50 (FRNT, live virus neutralisation)", "setting": "[1]", "result": 0.013, "unit": "µg/mL"}, {"measurement": "IC50 (FRNT neutralisation)", "setting": "[2]", "result": 0.012, "unit": "µg/mL"}, {"measurement": "IC50 (FRNT neutralisation)", "setting": "[3]", "result": 0.014, "unit": "µg/mL"}, {"measurement": "IC50 (ug/ml), FRNT", "setting": "[4]", "result": 0.013, "unit": "µg/mL"}, {"measurement": "IC50 (ug/ml), FRNT", "setting": "[5]", "result": 0.012, "unit": "µg/mL"}]}, {"substance": "LY-CoV16 (antibody)", "values": [{"measurement": "FRNT50 ratio P.1/Victoria", "setting": "[6]", "result": "> 291"}, {"measurement": "IC50 (FRNT neutralisation)", "setting": "[1]", "result": 0.034, "unit": "µg/mL"}, {"measurement": "FRNT50 ratio B.1.1.7/Victoria", "setting": "[2]", "result": 1.5}, {"measurement": "IC50 (FRNT neutralisation)", "setting": "[2]", "result": 3.23, "unit": "µg/mL"}, {"measurement": "FRNT50 ratio B.1.351/Victoria", "setting": "[3]", "result": "> 291"}, {"measurement": "IC50 (FRNT neutralisation)", "setting": "[3]", "result": "> 10", "unit": "µg/mL"}]}]}
